In patent US7304127:
Where “and” joins values, the source holds several entries; their conditions need not be identical. Equal values may be shown once.

Molecular target: HIV-1LAI envelope gp120 labeled with radioactive iodine (HIV-1 LAI), P03377
Experiment: 125I-gp120, peptide array

Row | Binder | counts minus background (counts per 20 min)
1 | NSLVLVISIFYHKLQSLT (modifications not checked) [STRL33 49-66] | 1260 and 1380
2 | TLLHAGGFQKHRSLKIIF (modifications not checked) [STRL33 217-234] | 1040 and 1000
3 | KVTSLLIWVISLLVSLPQ (modifications not checked) [STRL33 149-166] | -39.5 and -118
4 | GYHDEAISTVVLATQMTL (modifications not checked) [STRL33 181-198] | 754 and 1180
5 | PFWAYAGIHEWVFGQVMC (modifications not checked) [STRL33 85-102] | 7260 and 7540
6 | FSGIFFIILLTIDRYLAV (modifications not checked) [CCR5 113-130] | 83
7 | LTDVFLVNLPLADLVFVC (modifications not checked) [STRL33 65-82] | 234 and 336
8 | YAGIHEWVFGQVMCKSLL (modifications not checked) [STRL33 89-106] | 5910 and 6250
9 | LTMIVCYSVIIKTLLHAG (modifications not checked) [STRL33 205-222] | 2790 and 2650
10 | PQIIYGNVFNLDKLICGY (modifications not checked) [STRL33 165-182] | -18.5 and -37.5
11 | FFIILLTIDRYLAVVHAV (modifications not checked) [CCR5 117-134] | 77
12 | QWDFGNTMCQLLTGLYFI (modifications not checked) [CCR5 93-110] | 1020
13 | FLVNLPLADLVFVCTLPF (modifications not checked) [STRL33 69-86] | 70.5 and 51.5
14 | HEWVFGQVMCKSLLGIYT (modifications not checked) [STRL33 93-110] | 3390 and 3470
15 | KLICGYHDEAISTVVLAT (modifications not checked) [STRL33 177-194] | 1360 and 1600
16 | CQLLTGLYFIGFFSGIFF (modifications not checked) [CCR5 101-118] | 489
17 | QAKRMTWGKVTSLLIWVI (modifications not checked) [STRL33 141-158] | -71.5 and -31.5
18 | MPFNLMKFIRSTHWEYYA (modifications not checked) [STRL33 245-262] | 2170 and 2180
19 | LPLADLVFVCTLPFWAYA (modifications not checked) [STRL33 73-90] | 558 and 960
20 | DRYLAVVHAVFALKARTV (modifications not checked) [CCR5 125-142] | 62
21 | ACLNPVLYAFVSLKFRKN (modifications not checked) [STRL33 281-298] | 4170 and 4520
22 | MAVFLLTQMPFNLMKFIR (modifications not checked) [STRL33 237-254] | 2260 and 2840

Row | Binder | counts minus background (counts per 20 min)
23 | LLTQMPFNLMKFIRSTHW (modifications not checked) [STRL33 241-258] | 2510 and 3150
24 | LTVPFWAHYAAAQWDFGN (modifications not checked) [CCR5 81-98] | 306
25 | LLIWVISLLVSLPQIIYG (modifications not checked) [STRL33 153-170] | 42.5 and 75.5
26 | IFYHKLQSLTDVFLVNLP (modifications not checked) [STRL33 57-74] | 1280 and 1260
27 | LMKFIRSTHWEYYAMTSF (modifications not checked) [STRL33 249-266] | 934 and 950
28 | FGQVMCKSLLGIYTINFY (modifications not checked) [STRL33 97-114] | 1260 and 1350
29 | TIMVTEAIAYLRACLNPV (modifications not checked) [STRL33 269-286] | 140 and 272
30 | SFHYTIMVTEAIAYLRAC (modifications not checked) [STRL33 265-282] | 762 and 1030
31 | MLILTCITVDRFIVVVKA (modifications not checked) [STRL33 117-134] | 298 and 228
32 | SLKIIFLVMAVFLLTQMP (modifications not checked) [STRL33 229-246] | 612 and 854
33 | AFVSLKFRKNFWKLVKDI (modifications not checked) [STRL33 289-306] | 808 and 1040
34 | IYDINYYTSEPCQKINVK (modifications not checked) [CCR5 9-26] | 228
35 | LLTIDRYLAVVHAVFALK (modifications not checked) [CCR5 121-138] | 31
36 | YAAAQWDFGNTMCQLLTG (modifications not checked) [CCR5 89-106] | 494
37 | MCKSLLGIYTINFYTSML (modifications not checked) [STRL33 101-118] | 1510 and 1280
38 | ATQMTLGFFLPLLTMIVC (modifications not checked) [STRL33 193-210] | 2370 and 2440
39 | EAISTVVLATQMTLGFFL (modifications not checked) [STRL33 185-202] | 3970 and 3750
40 | FLPLLTMIVCYSVIIKTL (modifications not checked) [STRL33 201-218] | 1270 and 1200
41 | VIIKTLLHAGGFQKHRSL (modifications not checked) [STRL33 213-230] | 962 and 682
42 | HWEYYAMTSFHYTIMVTE (modifications not checked) [STRL33 257-274] | 2040 and 3070
43 | DLVFVCTLPFWAYAGIHE (modifications not checked) [STRL33 77-94] | 1120 and 1060
44 | YAMTSFHYTIMVTEAIAY (modifications not checked) [STRL33 261-278] | 2690 and 2360

Row | Binder | counts minus background (counts per 20 min)
45 | QKHRSLKIIFLVMAVFLL (modifications not checked) [STRL33 225-242] | 810 and 814
46 | PVLYAFVSLKFRKNFWKL (modifications not checked) [STRL33 285-302] | 1860 and 2150
47 | TVVLATQMTLGFFLPLLT (modifications not checked) [STRL33 189-206] | 2330 and 2390
48 | YGNVFNLDKLICGYHDEA (modifications not checked) [STRL33 169-186] | -41.5 and -20.5
49 | FIGFFSGIFFIILLTIDR (modifications not checked) [CCR5 109-126] | 76
50 | LKFRKNFWKLVKDIGCLP (modifications not checked) [STRL33 293-310] | 920 and 958
51 | VCTLPFWAYAGIHEWVFG (modifications not checked) [STRL33 81-98] | 1820 and 1750
52 | GNTMCQLLTGLYFIGFFS (modifications not checked) [CCR5 97-114] | 941
53 | AGGFQKHRSLKIIFLVMA (modifications not checked) [STRL33 221-238] | 340 and 260
54 | AYLRACLNPVLYAFVSLK (modifications not checked) [STRL33 277-294] | 1800 and 1850
55 | VSSPIYDINYYTSEPCQK (modifications not checked) [CCR5 5-22] | 383
56 | VCYSVIIKTLLHAGGFQK (modifications not checked) [STRL33 209-226] | 1330 and 1140
57 | FWAHYAAAQWDFGNTMCQ (modifications not checked) [CCR5 85-102] | 212
58 | IFLVMAVFLLTQMPFNLM (modifications not checked) [STRL33 233-250] | 386 and 772
59 | FNLDKLICGYHDEAISTV (modifications not checked) [STRL33 173-190] | 1070 and 1080
60 | TEAIAYLRACLNPVLYAF (modifications not checked) [STRL33 273-290] | 604 and 480
61 | VISLLVSLPQIIYGNVFN (modifications not checked) [STRL33 157-174] | -60.5 and -128
62 | IRSTHWEYYAMTSFHYTI (modifications not checked) [STRL33 253-270] | 1570 and 1810
63 | LFFLLTVPFWAHYAAAQW (modifications not checked) [CCR5 77-94] | 173
64 | LVISIFYHKLQSLTDVFL (modifications not checked) [STRL33 53-70] | 1620 and 1780
65 | VDRFIVVVKATKAYNQQA (modifications not checked) [STRL33 125-142] | 104 and 53.5
